This is an account of results in US20180155451A1 (published 2018).

The target of experiment [1] is T1, FcγRIIa H (FcγRIIa, type H allotype, His at position 131), extracellular domain with C-terminal His tag (human, UniProt P12318 34-217).
T1 construct: extracellular domain; Soluble receptor expressed in FreeStyle293 cells; analyte in Biacore; also called FcgRIIa H; 2aH; not shown: C-terminal His tag
T1 sequence (looked up): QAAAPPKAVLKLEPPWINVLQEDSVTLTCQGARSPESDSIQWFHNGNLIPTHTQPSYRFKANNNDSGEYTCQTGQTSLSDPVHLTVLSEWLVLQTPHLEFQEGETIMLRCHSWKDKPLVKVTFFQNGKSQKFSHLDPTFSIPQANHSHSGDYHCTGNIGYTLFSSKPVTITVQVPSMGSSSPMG
Kind of experiment: SPR (Biacore), captured antibody, FcγR as analyte.

Experiment [2] deals with T2, FcγRIIb, extracellular domain with C-terminal His tag (human, UniProt P31994 43-217).
T2 construct: extracellular domain; Soluble receptor expressed in FreeStyle293 cells; analyte in Biacore; also called FcgRIIb; 2b; not shown: C-terminal His tag
T2 sequence (looked up): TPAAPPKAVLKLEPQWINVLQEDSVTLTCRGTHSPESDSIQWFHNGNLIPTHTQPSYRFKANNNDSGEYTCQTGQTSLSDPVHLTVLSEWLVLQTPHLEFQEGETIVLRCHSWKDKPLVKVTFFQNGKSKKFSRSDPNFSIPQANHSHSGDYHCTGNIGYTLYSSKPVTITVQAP
Kind of experiment: SPR (Biacore), captured antibody, FcγR as analyte. (SPR reads the build-up and loss of mass on a sensor chip optically.)

For experiment [3], the target named is T1, FcγRIIa H (FcγRIIa, type H allotype, …). Put plainly: ratio of He/Con_2aH to He/Con_2b (FcγRIIa H over FcγRIIb), SPR.

B1: GpH7-A5/GpH7-B3 variant Q295_07I/GpL16-k0 (antibody, human IgG1, kappa)
heavy 1: not shown
heavy 2: not shown
light: DIVMTQSPLSLPVTPGEPASISCQASESLVHSNRNTYLHWYLQKPGQSPQLLIYKVSNRFSGVPDRFSGSGSGTDFTLKISRVEAEDVGVYYCSQNTHVPPTFGQGTKVEIERTVAAPSVFIFPPSDEQLKSGTASVVCLLNNFYPREAKVQWKVDNALQSGNSQESVTEQDSKDSTYSLSSTLTLSKADYEKHKVYACEVTHQGLSSPVTKSFNRGEC
notes: Heterodimerized IgG1; mutation only in the GpH7-B3 chain; also called He Ab
As to B1, in experiment [1], the He/Con_2aH was 102 relative, GpH7-A5/GpH7-B3/GpL16-k0 = 100. Moreover, in experiment [2], the He/Con_2b is 84.3 relative, GpH7-A5/GpH7-B3/GpL16-k0 = 100. Also, in experiment [3], the “He_2aH/2b (IIaH/IIb)” value worked out at 1.21.

B2: GpH7-A5/GpH7-B3 variant S298_19Q/GpL16-k0 (antibody, human IgG1, kappa)
heavy 1: not shown
heavy 2: not shown
light: DIVMTQSPLSLPVTPGEPASISCQASESLVHSNRNTYLHWYLQKPGQSPQLLIYKVSNRFSGVPDRFSGSGSGTDFTLKISRVEAEDVGVYYCSQNTHVPPTFGQGTKVEIERTVAAPSVFIFPPSDEQLKSGTASVVCLLNNFYPREAKVQWKVDNALQSGNSQESVTEQDSKDSTYSLSSTLTLSKADYEKHKVYACEVTHQGLSSPVTKSFNRGEC
notes: as for B1
On to B2, for which the He/Con_2aH in experiment [1] was 91 relative, GpH7-A5/GpH7-B3/GpL16-k0 = 100. Further, in experiment [2], the He/Con_2b was 73.3 relative, GpH7-A5/GpH7-B3/GpL16-k0 = 100. In experiment [3], the “He_2aH/2b (IIaH/IIb)” value came to 1.24.

B3: GpH7-A5/GpH7-B3 variant Y300_01G/GpL16-k0 (antibody, human IgG1, kappa)
heavy 1: not shown
heavy 2: not shown
light: DIVMTQSPLSLPVTPGEPASISCQASESLVHSNRNTYLHWYLQKPGQSPQLLIYKVSNRFSGVPDRFSGSGSGTDFTLKISRVEAEDVGVYYCSQNTHVPPTFGQGTKVEIERTVAAPSVFIFPPSDEQLKSGTASVVCLLNNFYPREAKVQWKVDNALQSGNSQESVTEQDSKDSTYSLSSTLTLSKADYEKHKVYACEVTHQGLSSPVTKSFNRGEC
notes: as for B1
B3: the He/Con_2aH in experiment [1] was 74.4 relative, GpH7-A5/GpH7-B3/GpL16-k0 = 100. In addition, the He/Con_2b in experiment [2] was 48.4 relative, GpH7-A5/GpH7-B3/GpL16-k0 = 100. Also, in experiment [3], the “He_2aH/2b (IIaH/IIb)” value was 1.54.

B4: GpH7-A5/GpH7-B3 variant Q295_12R/GpL16-k0 (antibody, human IgG1, kappa)
heavy 1: not shown
heavy 2: not shown
light: DIVMTQSPLSLPVTPGEPASISCQASESLVHSNRNTYLHWYLQKPGQSPQLLIYKVSNRFSGVPDRFSGSGSGTDFTLKISRVEAEDVGVYYCSQNTHVPPTFGQGTKVEIERTVAAPSVFIFPPSDEQLKSGTASVVCLLNNFYPREAKVQWKVDNALQSGNSQESVTEQDSKDSTYSLSSTLTLSKADYEKHKVYACEVTHQGLSSPVTKSFNRGEC
notes: as for B1
With B4, the He/Con_2aH in experiment [1] was 84.1 relative, GpH7-A5/GpH7-B3/GpL16-k0 = 100. Moreover, in experiment [2], the He/Con_2b was 65.2 relative, GpH7-A5/GpH7-B3/GpL16-k0 = 100. For the same molecule, the “He_2aH/2b (IIaH/IIb)” value in experiment [3] was 1.29.

B5: GpH7-A5/GpH7-B3 variant Q295_13S/GpL16-k0 (antibody, human IgG1, kappa)
heavy 1: not shown
heavy 2: not shown
light: DIVMTQSPLSLPVTPGEPASISCQASESLVHSNRNTYLHWYLQKPGQSPQLLIYKVSNRFSGVPDRFSGSGSGTDFTLKISRVEAEDVGVYYCSQNTHVPPTFGQGTKVEIERTVAAPSVFIFPPSDEQLKSGTASVVCLLNNFYPREAKVQWKVDNALQSGNSQESVTEQDSKDSTYSLSSTLTLSKADYEKHKVYACEVTHQGLSSPVTKSFNRGEC
notes: as for B1
Regarding B5, in experiment [1], the He/Con_2aH is 69.4 relative, GpH7-A5/GpH7-B3/GpL16-k0 = 100. In experiment [2], the He/Con_2b is 56.9 relative, GpH7-A5/GpH7-B3/GpL16-k0 = 100. Further, the “He_2aH/2b (IIaH/IIb)” value in experiment [3] stood at 1.22.

B6: GpH7-A5/GpH7-B3 variant Y300_02A/GpL16-k0 (antibody, human IgG1, kappa)
heavy 1: not shown
heavy 2: not shown
light: DIVMTQSPLSLPVTPGEPASISCQASESLVHSNRNTYLHWYLQKPGQSPQLLIYKVSNRFSGVPDRFSGSGSGTDFTLKISRVEAEDVGVYYCSQNTHVPPTFGQGTKVEIERTVAAPSVFIFPPSDEQLKSGTASVVCLLNNFYPREAKVQWKVDNALQSGNSQESVTEQDSKDSTYSLSSTLTLSKADYEKHKVYACEVTHQGLSSPVTKSFNRGEC
notes: as for B1
Regarding B6, the He/Con_2aH in experiment [1] is 93.5 relative, GpH7-A5/GpH7-B3/GpL16-k0 = 100. For the same molecule, in experiment [2], the He/Con_2b was 69.2 relative, GpH7-A5/GpH7-B3/GpL16-k0 = 100. Besides, the “He_2aH/2b (IIaH/IIb)” value in experiment [3] was 1.35.

B7: GpH7-A5/GpH7-B3 variant Q295_20W/GpL16-k0 (antibody, human IgG1, kappa)
heavy 1: not shown
heavy 2: not shown
light: DIVMTQSPLSLPVTPGEPASISCQASESLVHSNRNTYLHWYLQKPGQSPQLLIYKVSNRFSGVPDRFSGSGSGTDFTLKISRVEAEDVGVYYCSQNTHVPPTFGQGTKVEIERTVAAPSVFIFPPSDEQLKSGTASVVCLLNNFYPREAKVQWKVDNALQSGNSQESVTEQDSKDSTYSLSSTLTLSKADYEKHKVYACEVTHQGLSSPVTKSFNRGEC
notes: as for B1
As for B7, in experiment [1], the He/Con_2aH was 55.6 relative, GpH7-A5/GpH7-B3/GpL16-k0 = 100. Besides, the He/Con_2b in experiment [2] is 44.4 relative, GpH7-A5/GpH7-B3/GpL16-k0 = 100. The “He_2aH/2b (IIaH/IIb)” value in experiment [3] is 1.25.

B8: GpH7-A5/GpH7-B3 variant S298_07I/GpL16-k0 (antibody, human IgG1, kappa)
heavy 1: not shown
heavy 2: not shown
light: DIVMTQSPLSLPVTPGEPASISCQASESLVHSNRNTYLHWYLQKPGQSPQLLIYKVSNRFSGVPDRFSGSGSGTDFTLKISRVEAEDVGVYYCSQNTHVPPTFGQGTKVEIERTVAAPSVFIFPPSDEQLKSGTASVVCLLNNFYPREAKVQWKVDNALQSGNSQESVTEQDSKDSTYSLSSTLTLSKADYEKHKVYACEVTHQGLSSPVTKSFNRGEC
notes: as for B1
In the case of B8, the He/Con_2aH in experiment [1] was 86.9 relative, GpH7-A5/GpH7-B3/GpL16-k0 = 100. Also, the He/Con_2b in experiment [2] is 70.6 relative, GpH7-A5/GpH7-B3/GpL16-k0 = 100. The “He_2aH/2b (IIaH/IIb)” value in experiment [3] was found to be 1.23.
